Patent publication US20220047716A1 (SUTRO BIOPHARMA, published 2022)
Numbering of substitutions follows the chain as printed. In names and notes the source's numbering stands.

B1: SRP1848-F11 (antibody, V domains shown)
VH: EVQLVESGGGLVQPGGSLRLSCAASGFNISNNYIHWVRQAPGKGLEWVGGITPIDGNTDYADSVKGRFTISADTSMNTAYLQMNSLRAEDTAVYYCARGSWYWRAGYGYYLDYWGQGALVTVSS
VL: not shown
B2: SRP1848-G03 (antibody, V domains shown)
VH: EVQLVESGGGLVQPGGSLRLSCAASGFNISTYYIHWVRQAPGKGLEWVGGITPSDGFTDYADSVKGRSTISADTSKNTAYLQMNSLRAEDTAVYYCARGSWSWPSGHGYFLDYWGQGTLVTVSS
VL: not shown
B3: SRP1848-G01 (antibody, V domains shown)
VH: EVQLVESGGGLVQPGGSLRLSCAASGFNISRHSIHWVRQAPGKGLEWVGWIAPNDGSTDYADSVKGRFTISADTSKNTAYLQMNSLRAEDTAVYYCARGSWAWRSGYSYFLDYWGQGTLVTVSS
VL: not shown
B4: SRP1848-H01 (antibody, V domains shown)
VH: EVQLVESGGGLVQPGGSLRLSCAASGFNIRTQSIHWVRQAPGKGLEWIGDIFPIDGITDYADSVKGRFTISADTSKNTAYLQMNSLRAEDTAVYYCARGSWSWPSGMDYYLDYWGQGTLVTVSS
VL: not shown
B5: SRP1848-E06 (antibody, V domains shown)
VH: EVQLVESGGGLVQPSGSLRLSCAASGFNINRYYIHWVRQAPGKGLEWVGGITPNDGYTDYADSVEGRFTTSADTSKNTAYLQMNSLRAEDTAVYYCARGTWSWPSGHSYYLDYWGQGTLVTVSS
VL: not shown
B6: SRP1848-A02 (antibody, V domains shown)
VH: EVQLVESGGGLVQPGGSLRLSCAASGFNISGFRIHWVRQAPGKGLEWVAGIYPESGATYYADSVKGRFTISADTSKNTAYLQMNSLRAEDTAVYYCARHLYVWDWVLDHVLDYWGQGTLVTVSS
VL: not shown
B7: SRP1848-E03 (antibody, V domains shown)
VH: B2 VH with V12A, S30G, T31N, S54R, S68F, M83V, S105A, G108S, F110Y
VL: not shown
B8: ADC Molecule 4 (1848-H01 FolRα antibody, Y180/F404, Conjugate P) (antibody, V domains shown)
VH: B4 VH
VL: not shown
modifications: non-natural amino acids at HC-Y180 and HC-F404, each conjugated to the cleavable hemiasterlin linker-drug (Conjugate P); both sites lie in the constant region, outside the VH entry
B9: ADC Molecule 4 (antibody, V domains shown)
VH: B4 VH
VL: not shown
modifications: non-natural amino acids at HC-Y180 and HC-F404 (constant region, outside this VH entry) linked to cleavable hemiasterlin linker-drug (Conjugate P), DAR about 3.7-3.8
B10: ADC Molecule 23 (antibody 1848-H01 V262E, Y180/F404, Conjugate P) (antibody, V domains shown)
VH: B4 VH
VL: not shown
modifications: non-natural amino acid (pAMF) at heavy chain constant sites HC-Y180 and HC-F404 (EU numbering), each conjugated to cleavable hemiasterlin linker-drug (Conjugate P); DAR 3.57
B11: ADC Molecule 24 (antibody 1848-H01 V262E, Y180/F404, Conjugate Q) (antibody, V domains shown)
VH: B4 VH
VL: not shown
modifications: non-natural amino acid (pAMF) at heavy chain constant sites HC-Y180 and HC-F404 (EU numbering), each conjugated to cleavable (ValAla) hemiasterlin linker-drug (Conjugate Q); DAR 3.76
B12: ADC Molecule 4 (antibody 1848-H01, Y180/F404, Conjugate P) (antibody, V domains shown)
VH: B4 VH
VL: not shown
modifications: non-natural amino acid (para-azidomethyl-L-phenylalanine, pAMF) at heavy chain constant sites HC-Y180 and HC-F404 (EU numbering), each conjugated to cleavable hemiasterlin linker-drug (Conjugate P); DAR 3.73
B13: ADC Molecule 20 (antibody 1848-H01, Y180/F404, Conjugate Q) (antibody, V domains shown)
VH: B4 VH
VL: not shown
modifications: non-natural amino acid (pAMF) at heavy chain constant sites HC-Y180 and HC-F404 (EU numbering), each conjugated to cleavable (ValAla) hemiasterlin linker-drug (Conjugate Q); DAR 3.81
B14: SRP1848-D03 (antibody, V domains shown)
VH: B4 VH with L11V, T31Y, Q32F, I48V, I54N, I57S, D90E, S100H, M107Y, D108W
VL: not shown
B15: SRP1848-G04 (antibody, V domains shown)
VH: EVQLVESGGGLVQPGGSLRLSCAASGFNIHSTDIHWVRQAPGKGLEWVAYITPAGGATFYADSVKGRFTISADTSKNTAYLQMNSLRAEDTAVYYCARYPYWFAGYMDYWGQGTLVTVSS
VL: not shown
B16: SRP1848-G07 (antibody, V domains shown)
VH: B15 VH with F59W, Y101F
VL: not shown
B17: SRP1848-G10 (antibody, V domains shown)
VH: B15 VH with G16S, H30R, F59Y, M107I
VL: not shown
B18: SRP1848-G09 (antibody, V domains shown)
VH: B15 VH with H30R, S31G, Y99H, P100E, A104S
VL: not shown
B19: SRP1848-G11 (antibody, V domains shown)
VH: B15 VH with H30S, F59W, A104S
VL: not shown
B20: SRP1848-G06 (antibody, V domains shown)
VH: B15 VH with H30R, F59Y, S63N, Y99Q
VL: not shown
B21: SRP2060-E10 (antibody, V domains shown)
VH: EVQLLESGGGLVQPGGSLRLSCAFSGFSLSTFGMGVGWVRQAPGKGLEWVSHIWWDDDKYYHPALKGRFTISKDNSKNTVYLQMNSLRAEDTAVYYCGRNHFPHYYGSSHWYFNVWGQGTTVTVSS
VL: EIVMTQSPATLSLSPGERATLSCKASQDINSYLSWYQQKPGQAPRLLIYRANRLVDGIPARFSGSGSGTDYTLTISSLEPEDFAVYYCLQYDEFPYTFGGGTKVEIK
B22: SRP2060-B01 (antibody, V domains shown)
VH: B21 VH with F24L, P43T, Y81H
VL: DIQMTQSPSTLSASVGDRVTITCKASQDINSYLSWYQQKPGKAPKLLIYRANRLVDGVPSRFSGSGSGTEFTLTISSLQPDDFATYYCLQYDEFPYTFGGGTKVEIK
B23: SRP2060-E05 (antibody, V domains shown)
VH: B21 VH with I71V
VL: B21 VL
B24: SRP2060-A06 (antibody, V domains shown)
VH: B21 VH with S51G, H62Y, N114D
VL: B22 VL

Assays:
Assay in all cases: cell-based or functional assay
[1] = biological target: human folate receptor alpha (hFOLR1) (human, UniProt P15328 25-234)
Sequence of human folate receptor alpha (hFOLR1) (P15328 25-234 limits assumed): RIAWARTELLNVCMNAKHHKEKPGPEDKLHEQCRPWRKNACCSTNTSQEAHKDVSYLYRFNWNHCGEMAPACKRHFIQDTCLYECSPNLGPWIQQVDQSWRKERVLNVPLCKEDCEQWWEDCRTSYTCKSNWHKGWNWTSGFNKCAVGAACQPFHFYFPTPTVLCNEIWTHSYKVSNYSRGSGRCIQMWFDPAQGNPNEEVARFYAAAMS

[2] = biological target: human folate receptor beta (hFolRβ) (human, UniProt P14207 17-230)
Sequence of human folate receptor beta (hFolRβ) (P14207 17-230): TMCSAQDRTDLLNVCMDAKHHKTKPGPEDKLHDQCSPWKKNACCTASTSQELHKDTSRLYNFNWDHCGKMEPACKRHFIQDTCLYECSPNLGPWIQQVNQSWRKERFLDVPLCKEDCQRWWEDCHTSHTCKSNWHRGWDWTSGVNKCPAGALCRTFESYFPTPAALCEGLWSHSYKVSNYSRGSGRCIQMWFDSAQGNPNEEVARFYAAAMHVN

[3] = biological target: human folate receptor alpha (hFolRα) on cells (human, UniProt P15328 25-234)
Sequence of human folate receptor alpha (hFolRα) on cells (P15328 25-234 limits assumed): as the sequence (P15328 25-234 limits assumed) above

[4] = biological target: T1, human folate receptor alpha (hFOLR1) on cells (human, UniProt P15328 25-234)
T1 sequence (P15328 25-234 limits assumed): as above

[5] = biological target: Human folate receptor alpha (hFOLR1) (human, UniProt P15328 25-234)
Sequence of Human folate receptor alpha (hFOLR1) (P15328 25-234 limits assumed): as above

[6] = biological target: T1, human folate receptor alpha (hFOLR1) on …; remark: listed apart in the source

Binder	Igrov 2° antibody cell killing EC50 [1] [nM]	Igrov 2° antibody cell killing Span [1] [%]	KB 2° antibody cell killing EC50 [1] [nM]	KB 2° antibody cell killing Span [1] [%]	also measured
B1	0.017	70	0.054	91	–
B2	0.021	76	0.064	91	–
B3	0.022	66	0.07	91	–
B4	0.016	67	0.049	96	–
B5	0.025	74	–	93	–
B6	0.039	71	0.028	94	–
B7	0.027	73	0.057	94	–
B8	–	–	–	–	cytotoxic activity on 293T cells expressing FolRβ, EC50 [2]: ~100 nM; cytotoxic activity on 293T cells expressing FolRα, EC50 [3]: < 10 nM
B9	–	–	–	–	cytotoxic activity on Igrov1 cells in the presence of 0.5 µM un-conjugated 1848-H01, EC50 [4]: > 33 nM; cytotoxic activity on OVCAR3 cells in the presence of 0.5 µM un-conjugated 1848-H01, EC50 [4]: > 33 nM
B10	–	–	–	–	Cell Killing (Igrov1) EC50 [5]: 0.088 nM; Cell Killing (Igrov1) Span [5]: 72%
B11	–	–	–	–	Cell Killing (Igrov1) EC50 [5]: 0.19 nM; Cell Killing (Igrov1) Span [5]: 56%
B12	–	–	–	–	Cell Killing (Igrov1) EC50 [5]: 0.083 nM; Cell Killing (Igrov1) Span [5]: 80%
B13	–	–	–	–	Cell Killing (Igrov1) EC50 [5]: 0.13 nM; Cell Killing (Igrov1) Span [5]: 70%
B14	0.038	76	–	98	–
B15	0.016	75	0.051	92	–
B16	0.038	78	0.058	94	–
B17	0.019	79	0.046	97	–
B18	0.036	83	0.073	97	–
B19	0.023	84	0.04	97	–
B20	0.026	81	0.057	96	–
B21	–	–	–	–	Igrov 2° Antibody Cell Killing, Nb-SC239, EC50 [6]: 0.061 nM; Igrov 2° Antibody Cell Killing, Nb-SC239, span [6]: 68%
B22	–	–	–	–	Igrov 2° Antibody Cell Killing, Nb-SC239, EC50 [6]: 0.045 nM; Igrov 2° Antibody Cell Killing, Nb-SC239, span [6]: 76%
B23	–	–	–	–	Igrov 2° Antibody Cell Killing, Nb-SC239, EC50 [6]: 0.22 nM; Igrov 2° Antibody Cell Killing, Nb-SC239, span [6]: 71%
B24	–	–	–	–	Igrov 2° Antibody Cell Killing, Nb-SC239, EC50 [6]: 0.013 nM; Igrov 2° Antibody Cell Killing, Nb-SC239, span [6]: 66%
